Patent US20220119489A1, “COMPOSITIONS AND METHODS FOR […] […] DYSTROPHY AND RELATED DISORDERS” (CHILDREN'S MEDICAL CENTER CORPORATION, published 2022)

target: CD82 (mouse) (mouse, UniProt P40237); assay: IP with anti CD82 antibodies, mouse muscle tissue, mass spectrometry

| Total | Unique | Binder |
| --- | --- | --- |
| 1 | 1 | QCR2_MOUSE (other) SLKVAPKVKTSAAPGGVPLQPQDLEFTKLPNGLVIASLENYAPLSRIGLFVKAGSRYEDSNNLGTSHLLRLASSLTTKGASSFKITRGIEAVGGKLSVTATRENMAYTVEGIRSDIEILMEFLLNVTTAPEFRRWEVAALRSQLKIDKAVAFQNSQTRIIENLHDVAYKNALANPLYCPDYRMGKITSEELHYFVQNHFTSARMALVGLGVSHSVLKQVAEQFLNMRGGLGLAGAKAKYRGGEIREQNGDNLVHAAIVAESAAIGNAEANAFSVLQHLLGAGPHIKRGNNTTSLLSQSVAKGSHQPFDVSAFNASYSDSGLFGIYTISQAAAAGEVINAAYNQVKAVAQGNLSSADVQAAKNKLKAGYLMSVETSEGFLSEIGSQALAAGSYMPPSTVLQQIDSVADADVVKAAKKFVSGKKSMAASGNLGHTPFLDEL |
| 1 | 1 | IGG2B_MOUSE (other) KTTPPSVYPLAPGCGDTTGSSVTLGCLVKGYFPESVTVTWNSGSLSSSVHTFPALLQSGLYTMSSSVTVPSSTWPSQTVTCSVAHPASSTTVDKKLEPSGPISTINPCPPCKECHKCPAPNLEGGPSVFIFPPNIKDVLMISLTPKVTCVVVDVSEDDPDVQISWFVNNVEVHTAQTQTHREDYNSTIRVVSTLPIQHQDWMSGKEFKCKVNNKDLPSPIERTISKIKGLVRAPQVYILPPPAEQLSRKDVSLTCLVVGFNPGDISVEWTSNGHTEENYKDTAPVLDSDGSYFIYSKLNMKTSKWEKTDSFSCNVRHEGLKNYYLKKTISRSPGK |
| 2 | 2 | FBX50_MOUSE (other) MEKTQDRDTLSGRMEAEGSLNSEELPPHPQSPPPPPSPRSPTSPVTPELPQPNAPTEVEARQLLVEEWGPLSGKLELPPRISWQLLFLERPLYRNLLSSPNPEGINIYQPAPPTGPTRKPLKELGNFRGWYITTQNLQGPLSWTVKEQCVNLLAKKLWEELLDDEQPDITIMDWFEDSRLDQCVYELHVWLLAADRRTVIAQHHVAPRTNGRGPPGRWIQVSHVFRQYGPGVRFVYFQHKAKNRMEPGGLRRTRVTDSSVSVQLRE |
| 1 | 1 | LYZ1_MOUSE (enzyme) KVYNRCELARILKRNGMDGYRGVKLADWVCLAQHESNYNTRATNYNRGDRSTDYGIFQINSRYWCNDGKTPRSKNACGINCSALLQDDITAAIQCAKRVVRDPQGIRAWVAWRTQCQNRDLSQYIRNCGV |
| 3 | 2 | PRDX1_MOUSE (enzyme) SSGNAKIGYPAPNFKATAVMPDGQFKDISLSEYKGKYVVFFFYPLDFTFVCPTEIIAFSDRADEFKKLNCQVIGASVDSHFCHLAWINTPKKQGGLGPMNIPLISDPKRTIAQDYGVLKADEGISFRGLFIIDDKGILRQITINDLPVGRSVDEIIRLVQAFQFTDKHGEVCPAGWKPGSDTIKPDVNKSKEYFSKQK |
| 25 | 7 | IGHG_RABIT (other) GQPKAPSVFPLAPCCGDTPSSTVTLGCLVKGYLPEPVTVTWNSGTLTNGVRTFPSVRQSSGLYSLSSVVSVTSSSQPVTCNVAHPATNTKVDKTVAPSTCSKPTCPPPELLGGPSVFIFPPKPKDTLMISRTPEVTCVVVDVSQDDPEVQFTWYINNEQVRTARPPLREQQFNSTIRVVSTLPITHQDWLRGKEFKCKVHNKALPAPIEKTISKARGQPLEPKVYTMGPPREELSSRSVSLTCMINGFYPSDISVEWEKNGKAEDNYKTTPAVLDSDGSYFLYNKLSVPTSEWQRGDVFTCSVMHEALHNHYTQKSISRSPGK |

The next lines start with the binder.

| Binder | Total | Unique |
| --- | --- | --- |
| EF1A1_MOUSE (other) GKEKTHINIVVIGHVDSGKSTTTGHLIYKCGGIDKRTIEKFEKEAAEMGKGSFKYAWVLDKLKAERERGITIDISLWKFETSKYYVTIIDAPGHRDFIKNMITGTSQADCAVLIVAAGVGEFEAGISKNGQTREHALLAYTLGVKQLIVGVNKMDSTEPPYSQKRYEEIVKEVSTYIKKIGYNPDTVAFVPISGWNGDNMLEPSANMPWFKGWKVTRKDGSASGTTLLEALDCILPPTRPTDKPLRLPLQDVYKIGGIGTVPVGRVETGVLKPGMVVTFAPVNVTTEVKSVEMHHEALSEALPGDNVGFNVKNVSVKDVRRGNVAGDSKNDPPMEAAGFTAQVIILNHPGQISAGYAPVLDCHTAHIACKFAELKEKIDRRSGKKLEDGPKFLKSGDAAIVDMVPGKPMCVESFSDYPPLGRFAVRDMRQTVAVGVIKAVDKKAAGAGKVTKSAQKAQKAK | 2 | 2 |
| Creatine Kinase, Muscle type (enzyme) not shown | 14 | 11 |
| ENOB_MOUSE (enzyme) AMQKIFAREILDSRGNPTVEVDLHTAKGRFRAAVPSGASTGIYEALELRDGDKARYLGKGVLKAVEHINKTLGPALLEKKLSVVDQEKVDKFMIELDGTENKSKFGANAILGVSLAVCKAGAAEKGVPLYRHIADLAGNPDLVLPVPAFNVINGGSHAGNKLAMQEFMILPVGASSFKEAMRIGAEVYHHLKGVIKAKYGKDATNVGDEGGFAPNILENNEALELLKTAIQAAGYPDKVVIGMDVAASEFYRNGKYDLDFKSPDDPARHISGEKLGELYKNFIQNYPVVSIEDPFDQDDWATWTSFLSGVDIQIVGDDLTVTNPKRIAQAVEKKACNCLLLKVNQIGSVTESIQACKLAQSNGWGVMVSHRSGETEDTFIADLVVGLCTGQIKTGAPCRSERLAKYNQLMRIEEALGDKAVFAGRKFRNPKAK | 7 | 7 |
| ALDOA_MOUSE (enzyme) PHPYPALTPEQKKELSDIAHRIVAPGKGILAADESTGSIAKRLQSIGTENTEENRRFYRQLLLTADDRVNPCIGGVILFHETLYQKADDGRPFPQVIKSKGGVVGIKVDKGVVPLAGTNGETTTQGLDGLSERCAQYKKDGADFAKWRCVLKIGEHTPSALAIMENANVLARYASICQQNGIVPIVEPEILPDGDHDLKRCQYVTEKVLAAVYKALSDHHVYLEGTLLKPNMVTPGHACTQKFSNEEIAMATVTALRRTVPPAVTGVTFLSGGQSEEEASINLNAINKCPLLKPWALTFSYGRALQASALKAWGGKKENLKAAQEEYIKRALANSLACQGKYTPSGQSGAAASESLFISNHAY | 3 | 3 |
| Annexin 2 (mouse) (other) STVHEILCKLSLEGDHSTPPSAYGSVKPYTNFDAERDALNIETAVKTKGVDEVTIVNILTNRSNVQRQDIAFAYQRRTKKELPSALKSALSGHLETVILGLLKTPAQYDASELKASMKGLGTDEDSLIEIICSRTNQELQEINRVYKEMYKTDLEKDIISDTSGDFRKLMVALAKGRRAEDGSVIDYELIDQDARELYDAGVKRKGTDVPKWISIMTERSVCHLQKVFERYKSYSPYDMLESIKKEVKGDLENAFLNLVQCIQNKPLYFADRLYDSMKGKGTRDKVLIRIMVSRSEVDMLKIRSEFKRKYGKSLYYYIQQDTKGDYQKALLYLCGGDD | 1 | 1 |
| Annexin 1 (mouse) (other) AMVSEFLKQARFLENQEQEYVQAVKSYKGGPGSAVSPYPSFNVSSDVAALHKAIMVKGVDEATIIDILTKRTNAQRQQIKAAYLQENGKPLDEVLRKALTGHLEEVVLAMLKTPAQFDADELRGAMKGLGTDEDTLIEILTTRSNEQIREINRVYREELKRDLAKDITSDTSGDFRKALLALAKGDRCQDLSVNQDLADTDARALYEAGERRKGTDVNVFTTILTSRSFPHLRRVFQNYGKYSQHDMNKALDLELKGDIEKCLTTIVKCATSTPAFFAEKLYEAMKGAGTRHKALIRIMVSRSEIDMNEIKVFYQKKYGISLCQAILDETKGDYEKILVALCGGN | 2 | 2 |
| ENOA_MOUSE (enzyme) SILRIHAREIFDSRGNPTVEVDLYTAKGLFRAAVPSGASTGIYEALELRDNDKTRFMGKGVSQAVEHINKTIAPALVSKKVNVVEQEKIDKLMIEMDGTENKSKFGANAILGVSLAVCKAGAVEKGVPLYRHIADLAGNPEVILPVPAFNVINGGSHAGNKLAMQEFMILPVGASSFREAMRIGAEVYHNLKNVIKEKYGKDATNVGDEGGFAPNILENKEALELLKTAIAKAGYTDQVVIGMDVAASEFYRSGKYDLDFKSPDDPSRYITPDQLADLYKSFVQNYPVVSIEDPFDQDDWGAWQKFTASAGIQVVGDDLTVTNPKRIAKAASEKSCNCLLLKVNQIGSVTESLQACKLAQSNGWGVMVSHRSGETEDTFIADLVVGLCTGQIKTGAPCRSERLAKYNQILRIEEELGSKAKFAGRSFRNPLAK | 2 | 2 |
| CISY_MOUSE (enzyme) ASSTNLKDVLSNLIPKEQARIKTFKQQHGKTVVGQITVDMMYGGMRGMKGLVYETSVLDPDEGIRFRGYSIPECQKMLPKAKGGEEPLPEGLFWLLVTGQMPTEEQVSWLSREWAKRAALPSHVVTMLDNFPTNLHPMSQLSAAITALNSESNFARAYAEGMNRAKYWELIYEDCMDLIAKLPCVAAKIYRNLYREGSSIGAIDSRLDWSHNFTNMLGYTDPQFTELMRLYLTIHSDHEGGNVSAHTSHLVGSALSDPYLSFAAAMNGLAGPLHGLANQEVLVWLTQLQKEVGKDVSDEKLRDYIWNTLNSGRVVPGYGHAVLRKTDPRYSCQREFALKHLPKDPMFKLVAQLYKIVPNILLEQGKAKNPWPNVDAHSGVLLQYYGMTEMNYYTVLFGVSRALGVLAQLIWSRALGFPLERPKSMSTDGLMKFVDSK | 2 | 2 |
